Laboratory results reported in US20240002888A1, “RECOMBINANT MICROORGANISM COMPRISING POLYNUCLEOTIDE ENCODING TARGET PRODUCT BINDING PROTEIN FUSED TO SECRETION SIGNAL SEQUENCE, COMPOSITION COMPRISING SAME, AND METHOD FOR PRODUCING TARGET PRODUCT BY USING SAME” (KOREA RESEARCH INSTITUTE OF CHEMICAL TECHNOLOGY, priority 2020, published 2024).

B1: MFα-tSPF: fusion protein of MFα signal peptide at N-terminus of tSPF (SEQ ID NO: 25), expressed in yeast from pSEC-MFα-tSPF (protein)
chain: MRFPSIFTAVLFAASSALAAPVNTTTEDETAQIPAEAVIGYSDLEGDFDVAVLPFSNSTNNGLLFINTTIASIAAKEEGVSLEKREAEAMEFSGRVGDLSPRQKEALAKFRENVQDVLPALPNPDDYFLLRWLRARSFDLQKSEAMLRKHVEFRKQKDIDNIISWQPPEVIQQYLSGGMCGYDLDGCPVWYDIIGPLDAKGLLFSASKQDLLRTKMRECELLLQECAHQTTKLGRKVETITAIYDCEGLGLKHLWKPAVEAYGEALCMFEENYPETLKRLFVVKAPKLFPVAYNLIKPFLSEDTRKKIMVLGANWKEVLLKHISPDQVPVEYGGTMTDPDGNPKCKSKINYGGDIPRKYYVRDQVK
modifications: MF-tSPF
B2: Suc2-tSPF: fusion protein of Suc2 signal peptide at N-terminus of tSPF (SEQ ID NO: 23), expressed in yeast from pSEC-Suc2-tSPF (protein)
chain: MLLQAFLFLLAGFAAKISAMEFSGRVGDLSPRQKEALAKFRENVQDVLPALPNPDDYFLLRWLRARSFDLQKSEAMLRKHVEFRKQKDIDNIISWQPPEVIQQYLSGGMCGYDLDGCPVWYDIIGPLDAKGLLFSASKQDLLRTKMRECELLLQECAHQTTKLGRKVETITAIYDCEGLGLKHLWKPAVEAYGEALCMFEENYPETLKRLFVVKAPKLFPVAYNLIKPFLSEDTRKKIMVLGANWKEVLLKHISPDQVPVEYGGTMTDPDGNPKCKSKINYGGDIPRKYYVRDQVK
modifications: Suc2-tSPF
B3: tSPF: truncated supernatant protein factor, amino acids 1 to 275 of SPF (SEQ ID NO: 2), without secretion signal; control expressed from pSEC-tSPF (protein)
chain: MSGRVGDLSPRQKEALAKFRENVQDVLPALPNPDDYFLLRWLRARSFDLQKSEAMLRKHVEFRKQKDIDNIISWQPPEVIQQYLSGGMCGYDLDGCPVWYDIIGPLDAKGLLFSASKQDLLRTKMRECELLLQECAHQTTKLGRKVETITIIYDCEGLGLKHLWKPAVEAYGEFLCMFEENYPETLKRLFVVKAPKLFPVAYNLIKPFLSEDTRKKIMVLGANWKEVLLKHISPDQVPVEYGGTMTDPDGNPKCKSKINYGGDIPRKYYVRDQVK
modifications: truncated SPF
B4: Pho5-tSPF: fusion protein of Pho5 signal peptide at N-terminus of tSPF (SEQ ID NO: 24), expressed in yeast from pSEC-Pho5-tSPF (protein)
chain: MFKSVVYSILAASLANAMEFSGRVGDLSPRQKEALAKFRENVQDVLPALPNPDDYFLLRWLRARSFDLQKSEAMLRKHVEFRKQKDIDNIISWQPPEVIQQYLSGGMCGYDLDGCPVWYDIIGPLDAKGLLFSASKQDLLRTKMRECELLLQECAHQTTKLGRKVETITAIYDCEGLGLKHLWKPAVEAYGEALCMFEENYPETLKRLFVVKAPKLFPVAYNLIKPFLSEDTRKKIMVLGANWKEVLLKHISPDQVPVEYGGTMTDPDGNPKCKSKINYGGDIPRKYYVRDQVK
modifications: Pho5-SPF

What was measured:
Assay type in all cases: cell-based, Saccharomyces cerevisiae
[1] = tested on: SQ strain; test: Squalene production and secretion by SQ strains transformed with tSPF fused to a secretion signal sequence (HPLC of cell lysate and dodecane layer); settings: for Intracellular (mg/L) / Intracellular (mg/g): squalene in cells; for Extracellular: squalene in dodecane layer
Protocol: The SQ strains transformed with the pSEC-Suc2-tSPF, pSEC-Pho5-tSPF, and pSEC-MFα-tSPF expression vectors were cultured in flask ([…]) containing 50 mL of minimal medium (e.g., YSC medium; 0.67% (w/v) yeast nitrogen base without amino acids (BD Difco, USA), 0.19% (w/v) yeast synthetic drop-out medium supplements without uracil (Sigma-Aldrich, USA)) while stirring at 250 rpm at 30° C.
After culturing for 72 hours and 144 hours, the culture was centrifuged at 4,000 rpm to be separated into cells, a culture supernatant, and a dodecane layer. Then, the concentration of squalene in the separated cells and dodecane layer was measured. To measure the squalene concentration in the cells, the cells were resuspended in 600 μL of a mixed solution containing methanol and acetone at 1:1, transferred to a tube containing lysing matrix C (glass bead, MP Biomedicals, USA), and then underwent cell lysis by using a FastPrep-24 5G homogenizer (MP Biomedicals, USA). By centrifugation at 13,000 rpm, the lysed cells and intracellular metabolites including squalene dissolved from the lysed cells were separated.
Next, the squalene concentration in the cell lysate was measured. To measure the squalene concentration in the cell lysate, the concentration was measured by using an Agilent HPLC system after filtering the cell lysate through a 0.2 μm syringe filter.
In addition, the dodecane layer separated by centrifugation was also filtered in the same way, and then the squalene concentration was measured by using an HPLC system. […] FIGS. 2A and 2B show the squalene concentrations outside the cells or in the cells, wherein the cells were produced by yeast cells including the polynucleotide encoding tSPF fused to the secretion signal sequence.

[2] = tested on: CEN.PK2-1D yeast cells; test: Beta-carotene production and secretion by CEN.PK2-1D yeast cells co-transformed with p415-BC and pSEC-tSPF or pSEC-Suc2-tSPF; settings: for Intracellular (mg/L) / Intracellular (mg/g): beta-carotene in cells; for Extracellular: beta-carotene in dodecane layer
Excerpt: Through the same process as described in Section (1.2) of Example 1, the S. cerevisiae wild strain CEN.PK2-1D was co-transformed with the p415-BC vector manufactured in Section (1.2) and either pSEC-tSPF or pSEC-Suc2-tSPF, to manufacture yeast cells transformed with a vector expressing tSPF fused to a signal peptide.
CEN.PK2-1D yeast cells, which were co-transformed with the p415-BC vector obtained in Section (2.2) and either pSEC-tSPF or pSEC-Suc2-tSPF and were able to overproduce beta-carotene, were cultured for 144 hours under the same conditions as described in Section (1.3) of Example 1. Then, the amount of beta-carotene in the cultured cells and outside the cells was measured. The amount of beta-carotene was measured in the same method as the methods for cell lysis and dodecane layer separation used for the measurement of the squalene concentration. Table 2 and FIG. 6 show the amount of beta-carotene produced by culturing the CEN.PK2-1D yeast cells co-transformed with the p415-BC vector and either pSEC-tSPF or pSEC-Suc2-tSPF.

[3] = tested on: SQ strain; test: Western blot analysis of cell lysates and culture supernatant of transformed SQ strains (anti-His tag); settings: medium without dodecane layer
Protocol: FIG. 4 is a diagram showing the results of western blot analysis of the cell lysates and the culture supernatant obtained after culturing the SQ strains that were each transformed with the Suc2-tSPF, Pho5-tSPF and MFα-tSPF fusion protein genes. To confirm the extracellular secretion of the tSPF fusion protein, yeast cells were cultured in a flask ([…]) containing 50 mL minimal medium (e.g., YSC medium; 0.67% (w/v) yeast nitrogen base without amino acids (BD Difco, USA), 0.19% (w/v) yeast synthetic drop-out medium supplements without uracil (Sigma-Aldrich, USA)) supplemented with 2% (w/v) glucose while stirring at 30° C. […] To extract intracellular proteins from the cultured yeast cells in an amount corresponding to an OD600 value of 100, the cells were resuspended 1 mL of cell lysis buffer (1 mL RIPA buffer, Thermo Scientific, MA, USA) containing protease inhibitor (1× protease inhibitor cocktail, Roche Diagnostics, Mannheim, Germany). The suspension was homogenized by using a sonicator, for 6 minutes at 20% amplitude and 3 second intervals. The extracellular proteins in the supernatant of the culture medium were added to a solution in which trichloroacetic acid solution was added to 50 mL of the supernatant to account for 25%, and incubated for 30 minutes to precipitate proteins, followed by centrifugation at 4° C. for 40 minutes. The precipitated proteins were washed three times with 1 ml of cold acetone, and then resuspended in 50 μl of sterile water. The resuspended proteins were further concentrated by using 30 kDa am icon ultra centrifugal filters.
The protein samples thus prepared, i.e. the cell lysates, were mixed with 5×SDS sample buffer and separated by 10% SDS-PAGE. The proteins separated on the SDS-PAGE gel were transferred to a PVDF membrane, and blocked by incubation for one day in TBST containing 4% skim milk. The PVDF membrane was reacted with a solution containing primary antibodies at room temperature for 1 hour, and then washed with a TBST solution three times. As the primary antibody, an anti-actin antibody or an anti-His tag antibody was used. The fusion protein included a 6×His tag sequence at the C-terminus. The washed PVDF membrane was reacted again in a solution containing peroxidase-conjugated anti-IgG antibodies at room temperature for 1 hour. The PVDF membrane in which the antibody-conjugated proteins were present was visualized by using the ChemiDoc imaging system.

Molecule	amount of extracellular squalene or extracellular squalene secretion ratio compared to the control cells [1]	Intracellular (mg/L) ([1]; 72 hours)	Intracellular (mg/g) ([1]; 72 hours)	Intracellular (mg/L) ([1]; 144 hours)	Intracellular (mg/g) ([1]; 144 hours)	Extracellular ([1]; 72 hours)	Extracellular ([1]; 144 hours)	amount of extracellular beta-carotene or ratio of extracellular secretion compared to control cells [2]	extracellular secretion of beta-carotene, increase compared to the control groups containing the empty vector ([2]; 144 hours)	Intracellular (mg/L) ([2]; 144 hours)	Intracellular (mg/g) ([2]; 144 hours)	Extracellular ([2]; 144 hours)	western blot band in cell lysate [3]	western blot band in culture supernatant ([3]; culture supernatant)
B1	significant increase	210.52 mg/L	44.88 mg/g	551.64 mg/L	78.42 mg/g	4.21 mg/L	43.25 mg/L							
B2	significant increase	476.9 mg/L	89.61 mg/g	557.03 mg/L	97.93 mg/g	166.62 mg/L	226.51 mg/L	significantly increased	about 23 fold	7.65 mg/L	0.82 mg/g	1.4 mg/L	hardly appeared	
B3		401.51 mg/L	55.05 mg/g	485.04 mg/L	59.43 mg/g	3.67 mg/L	13.82 mg/L			7.04 mg/L	0.69 mg/g	0.23 mg/L	apparent band	did not appear
B4	significant increase	252.17 mg/L	51.68 mg/g	426.85 mg/L	72.39 mg/g	64.55 mg/L	190.09 mg/L						hardly appeared	
